These results are taken from patent US20070054848.

This series concerns the target recombinant full-length p21 (1-164 in SEQ ID NO: 23).

Chain of recombinant full-length p21 (1-164 in SEQ ID NO: 23) (chain, as listed by the source): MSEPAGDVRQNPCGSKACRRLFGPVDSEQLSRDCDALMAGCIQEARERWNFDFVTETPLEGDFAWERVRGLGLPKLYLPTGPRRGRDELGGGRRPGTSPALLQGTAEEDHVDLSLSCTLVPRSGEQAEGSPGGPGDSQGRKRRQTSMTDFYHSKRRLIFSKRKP

B1: Rho kinase fragment (aa 1-543, Upstate Biotechnology) (protein)
chain: MSRPPPTGKMPGAPETAPGDGAGASRQRKLEALIRDPRSPINVESLLDGLNSLVLDLDFPALRKNKNIDNFLNRYEKIVKKIKGLQMKAEDYDVVKVIGRGAFGEVQLVRHKASQKVYAMKLLSKFEMIKRSDSAFFWEERDIMAFANSPWVVQLFYAFQDDRYLYMVMEYMPGGDLVNLMSNYDVPEKWAKFYTAEVVLALDAIHSMGLIHRDVKPDNMLLDKHGHLKLADFGTCMKMDETGMVHCDTAVGTPDYISPEVLKSQGGDGFYGRECDWWSVGVFLYEMLVGDTPFYADSLVGTYSKIMDHKNSLCFPEDAEISKHAKNLICAFLTDREVRLGRNGVEEIRQHPFFKNDQWHWDNIRETAAPVVPELSSDIDSSNFDDIEDDKGDVETFPIPKAFVGNQLPFIGFTYYRENLLLSDSPSCRENDSIQSRKNEESQEIQKKLYTLEEHLSNEMQAKEELEQKCKSVNTRLEKTAKELEEEITLRKSVESALRQLEREKALLQHKNAEYQRKADHEADKKRNLENDVNSLKDQLEDL
Take B1: the “Rho-kinase activity toward S6 kinase substrate peptide ([γ-32P] ATP, scintillation counting)” value is “the estimated IC50 value was 1.43 nM”.
